Reference: US20140087995A1 (published 2014)
Numbered stars: 1 amine (or outer) side, 2 acyl side, 3 side chain; on linkers, the order of the positions; unused ones are H or OH. Bridge positions count the residues as written; N and C are the ends. Side chains are listed from the residue outwards. Ends that are not written are not given here. * marks the point of attachment. C20 diacid = O=C(O)CCCCCCCCCCCCCCCCCCC(=O)*; γGlu = O=C(O)[C@H](CCC(=O)[*:2])N[*:1]; AEEA = NCCOCCOCC(=O)O

T1: human calcitonin receptor (human, UniProt P30988 25-474)
T1 construct: whole, on cells; Used as cell membranes prepared from the transfected BHK cells (Assay VII), not as intact cells; also called hCTR; hCT
T1 sequence (looked up): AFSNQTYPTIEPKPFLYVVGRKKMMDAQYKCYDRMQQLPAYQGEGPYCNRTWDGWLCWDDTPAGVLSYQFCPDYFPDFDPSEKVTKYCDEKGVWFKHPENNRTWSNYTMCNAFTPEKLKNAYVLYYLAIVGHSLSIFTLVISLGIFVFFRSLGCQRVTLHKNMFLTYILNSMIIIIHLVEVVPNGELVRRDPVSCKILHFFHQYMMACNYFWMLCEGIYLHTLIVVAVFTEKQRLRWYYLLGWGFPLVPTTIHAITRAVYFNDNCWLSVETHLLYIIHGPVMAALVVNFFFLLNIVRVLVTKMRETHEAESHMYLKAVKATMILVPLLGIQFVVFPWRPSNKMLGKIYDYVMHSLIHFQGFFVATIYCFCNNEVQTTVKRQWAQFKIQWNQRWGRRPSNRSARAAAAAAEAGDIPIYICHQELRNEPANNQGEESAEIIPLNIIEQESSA


molecular target: T1, human calcitonin receptor; experiment: SPA competition against 125I-calcitonin, membranes with human calcitonin receptor (Assay VII)
Protocol: Membranes were prepared in the following way; the cells were rinsed with PBS and incubated with Versene for approximately 5 min before harvesting. The cells were flushed with PBS and the cell-suspension was centrifuged for 5 min at 1000 rpm. Cells were homogenized (Ultrathurrax) in a buffer containing 20 mM Na-HEPES and 10 mM EDTA (pH 7.4) and centrifuged at 20.000 rpm for 15 min. The resulting pellet was resuspended, homogenized and centrifuged (20.000 rpm, 15 min) in a buffer containing 20 mM Na-HEPES and 0.1 mM EDTA (pH 7.4, buffer 2). The resulting pellet was resuspended in buffer 2 and protein concentration was measured (BCA protein Assay, Pierce). The homogenate was kept cold during the whole procedure. The membranes were kept at −80° C. until use. Assay was performed in a 384 well Optiplate (PerkinElmer) in a total volume of 40 ul. Membranes were mixed with SPA beads. Final concentration of membranes 35 ng/μL final and Final concentration of SPA beads was 0.05 mg/well. Test-compounds were dissolved in DMSO and further diluted in assay buffer (50 mM Hepes, pH 7.4, 1 mM CaCl2, 5 mM MgCl₂, 0.1% OA and 0.02% Tween20). […] The final mixture was incubated for 120 min with shaking at 400 rpm at 25° C. prior to centrifugation (1500 rpm, 10 min). Samples were analyzed on TopCounter™ (Packard). The […] was calculated using (one site binding competition analysis) GraphPad Prism5 as a measure of receptor affinity.

Binder	IC50 [nM]
{C20 diacid-γGlu}-KCNTATCATQRLANFLRHSSPNFGAIPSSTPVGSETY-NH2 (disulfide 2-7; SMILES CC[C@H](C)[C@H](NC(=O)[C@H](C)NC(=O)CNC(=O)[C@H](Cc1ccccc1)NC(=O)[C@H](CC(N)=O)NC(=O)[C@@H]1CCCN1C(=O)[C@H](CO)NC(=O)[C@H](CO)NC(=O)[C@H](Cc1c[nH]cn1)NC(=O)[C@H](CCCNC(=N)N)NC(=O)[C@H](CC(C)C)NC(=O)[C@H](Cc1ccccc1)NC(=O)[C@H](CC(N)=O)NC(=O)[C@H](C)NC(=O)[C@H](CC(C)C)NC(=O)[C@H](CCCNC(=N)N)NC(=O)[C@H](CCC(N)=O)NC(=O)[C@@H](NC(=O)[C@H](C)NC(=O)[C@@H]1CSSC[C@H](NC(=O)[C@H](CCCCN)NC(=O)CC[C@H](NC(=O)CCCCCCCCCCCCCCCCCCC(=O)O)C(=O)O)C(=O)N[C@@H](CC(N)=O)C(=O)N[C@@H]([C@@H](C)O)C(=O)N[C@@H](C)C(=O)N[C@@H]([C@@H](C)O)C(=O)N1)[C@@H](C)O)C(=O)N1CCC[C@H]1C(=O)N[C@@H](CO)C(=O)N[C@@H](CO)C(=O)N[C@H](C(=O)N1CCC[C@H]1C(=O)N[C@H](C(=O)NCC(=O)N[C@@H](CO)C(=O)N[C@@H](CCC(=O)O)C(=O)N[C@H](C(=O)N[C@@H](Cc1ccc(O)cc1)C(N)=O)[C@@H](C)O)C(C)C)[C@@H](C)O, also called compound 28)	12.5
{C20 diacid-γGlu}-KCNTATCATQRLAEFLRHSSPNFGAPLSSTNVGSNTY-NH2 (disulfide 2-7; SMILES CC(C)C[C@H](NC(=O)[C@H](CCCNC(=N)N)NC(=O)[C@H](CCC(N)=O)NC(=O)[C@@H](NC(=O)[C@H](C)NC(=O)[C@@H]1CSSC[C@H](NC(=O)[C@H](CCCCN)NC(=O)CC[C@H](NC(=O)CCCCCCCCCCCCCCCCCCC(=O)O)C(=O)O)C(=O)N[C@@H](CC(N)=O)C(=O)N[C@@H]([C@@H](C)O)C(=O)N[C@@H](C)C(=O)N[C@@H]([C@@H](C)O)C(=O)N1)[C@@H](C)O)C(=O)N[C@@H](C)C(=O)N[C@@H](CCC(=O)O)C(=O)N[C@@H](Cc1ccccc1)C(=O)N[C@@H](CC(C)C)C(=O)N[C@@H](CCCNC(=N)N)C(=O)N[C@@H](Cc1c[nH]cn1)C(=O)N[C@@H](CO)C(=O)N[C@@H](CO)C(=O)N1CCC[C@H]1C(=O)N[C@@H](CC(N)=O)C(=O)N[C@@H](Cc1ccccc1)C(=O)NCC(=O)N[C@@H](C)C(=O)N1CCC[C@H]1C(=O)N[C@@H](CC(C)C)C(=O)N[C@@H](CO)C(=O)N[C@@H](CO)C(=O)N[C@H](C(=O)N[C@@H](CC(N)=O)C(=O)N[C@H](C(=O)NCC(=O)N[C@@H](CO)C(=O)N[C@@H](CC(N)=O)C(=O)N[C@H](C(=O)N[C@@H](Cc1ccc(O)cc1)C(N)=O)[C@@H](C)O)C(C)C)[C@@H](C)O, also called compound 7) [N^α1-[(4S)-4-carboxy-4-(19-carboxynonadecanoylamino)butanoyl]-[Glu14,Arg17,Pro21,Pro26]-h-amylin]	11.1
{C20 diacid-γGlu}-KCNTATCATQRLAHFLRHSSPNFGAIPSSTNVGSETY-NH2 (disulfide 2-7; SMILES CC[C@H](C)[C@H](NC(=O)[C@H](C)NC(=O)CNC(=O)[C@H](Cc1ccccc1)NC(=O)[C@H](CC(N)=O)NC(=O)[C@@H]1CCCN1C(=O)[C@H](CO)NC(=O)[C@H](CO)NC(=O)[C@H](Cc1c[nH]cn1)NC(=O)[C@H](CCCNC(=N)N)NC(=O)[C@H](CC(C)C)NC(=O)[C@H](Cc1ccccc1)NC(=O)[C@H](Cc1c[nH]cn1)NC(=O)[C@H](C)NC(=O)[C@H](CC(C)C)NC(=O)[C@H](CCCNC(=N)N)NC(=O)[C@H](CCC(N)=O)NC(=O)[C@@H](NC(=O)[C@H](C)NC(=O)[C@@H]1CSSC[C@H](NC(=O)[C@H](CCCCN)NC(=O)CC[C@H](NC(=O)CCCCCCCCCCCCCCCCCCC(=O)O)C(=O)O)C(=O)N[C@@H](CC(N)=O)C(=O)N[C@@H]([C@@H](C)O)C(=O)N[C@@H](C)C(=O)N[C@@H]([C@@H](C)O)C(=O)N1)[C@@H](C)O)C(=O)N1CCC[C@H]1C(=O)N[C@@H](CO)C(=O)N[C@@H](CO)C(=O)N[C@H](C(=O)N[C@@H](CC(N)=O)C(=O)N[C@H](C(=O)NCC(=O)N[C@@H](CO)C(=O)N[C@@H](CCC(=O)O)C(=O)N[C@H](C(=O)N[C@@H](Cc1ccc(O)cc1)C(N)=O)[C@@H](C)O)C(C)C)[C@@H](C)O, also called compound 30)	21.6
K([AEEA-AEEA-γGlu-C20 diacid])CNTATCATQRLANFLRHSSPNFGAIPSSTNVGSETY-NH2 (disulfide 2-7; N-terminus assumed; SMILES CC[C@H](C)[C@H](NC(=O)[C@H](C)NC(=O)CNC(=O)[C@H](Cc1ccccc1)NC(=O)[C@H](CC(N)=O)NC(=O)[C@@H]1CCCN1C(=O)[C@H](CO)NC(=O)[C@H](CO)NC(=O)[C@H](Cc1c[nH]cn1)NC(=O)[C@H](CCCNC(=N)N)NC(=O)[C@H](CC(C)C)NC(=O)[C@H](Cc1ccccc1)NC(=O)[C@H](CC(N)=O)NC(=O)[C@H](C)NC(=O)[C@H](CC(C)C)NC(=O)[C@H](CCCNC(=N)N)NC(=O)[C@H](CCC(N)=O)NC(=O)[C@@H](NC(=O)[C@H](C)NC(=O)[C@@H]1CSSC[C@H](NC(=O)[C@@H](N)CCCCNC(=O)COCCOCCNC(=O)COCCOCCNC(=O)CC[C@H](NC(=O)CCCCCCCCCCCCCCCCCCC(=O)O)C(=O)O)C(=O)N[C@@H](CC(N)=O)C(=O)N[C@@H]([C@@H](C)O)C(=O)N[C@@H](C)C(=O)N[C@@H]([C@@H](C)O)C(=O)N1)[C@@H](C)O)C(=O)N1CCC[C@H]1C(=O)N[C@@H](CO)C(=O)N[C@@H](CO)C(=O)N[C@H](C(=O)N[C@@H](CC(N)=O)C(=O)N[C@H](C(=O)NCC(=O)N[C@@H](CO)C(=O)N[C@@H](CCC(=O)O)C(=O)N[C@H](C(=O)N[C@@H](Cc1ccc(O)cc1)C(N)=O)[C@@H](C)O)C(C)C)[C@@H](C)O, also called compound 25)	43.4
{C20 diacid-γGlu}-KCNTATCATQRLAEFLRHSSPNFGAIPSSTNVGSRTY-NH2 (disulfide 2-7; SMILES CC[C@H](C)[C@H](NC(=O)[C@H](C)NC(=O)CNC(=O)[C@H](Cc1ccccc1)NC(=O)[C@H](CC(N)=O)NC(=O)[C@@H]1CCCN1C(=O)[C@H](CO)NC(=O)[C@H](CO)NC(=O)[C@H](Cc1c[nH]cn1)NC(=O)[C@H](CCCNC(=N)N)NC(=O)[C@H](CC(C)C)NC(=O)[C@H](Cc1ccccc1)NC(=O)[C@H](CCC(=O)O)NC(=O)[C@H](C)NC(=O)[C@H](CC(C)C)NC(=O)[C@H](CCCNC(=N)N)NC(=O)[C@H](CCC(N)=O)NC(=O)[C@@H](NC(=O)[C@H](C)NC(=O)[C@@H]1CSSC[C@H](NC(=O)[C@H](CCCCN)NC(=O)CC[C@H](NC(=O)CCCCCCCCCCCCCCCCCCC(=O)O)C(=O)O)C(=O)N[C@@H](CC(N)=O)C(=O)N[C@@H]([C@@H](C)O)C(=O)N[C@@H](C)C(=O)N[C@@H]([C@@H](C)O)C(=O)N1)[C@@H](C)O)C(=O)N1CCC[C@H]1C(=O)N[C@@H](CO)C(=O)N[C@@H](CO)C(=O)N[C@H](C(=O)N[C@@H](CC(N)=O)C(=O)N[C@H](C(=O)NCC(=O)N[C@@H](CO)C(=O)N[C@@H](CCCNC(=N)N)C(=O)N[C@H](C(=O)N[C@@H](Cc1ccc(O)cc1)C(N)=O)[C@@H](C)O)C(C)C)[C@@H](C)O, also called compound 16)	17.1
{C20 diacid-γGlu}-KCNTATCATQRLAEFLRHSSPNFGAIPSSTPVGSNTY-NH2 (disulfide 2-7; SMILES CC[C@H](C)[C@H](NC(=O)[C@H](C)NC(=O)CNC(=O)[C@H](Cc1ccccc1)NC(=O)[C@H](CC(N)=O)NC(=O)[C@@H]1CCCN1C(=O)[C@H](CO)NC(=O)[C@H](CO)NC(=O)[C@H](Cc1c[nH]cn1)NC(=O)[C@H](CCCNC(=N)N)NC(=O)[C@H](CC(C)C)NC(=O)[C@H](Cc1ccccc1)NC(=O)[C@H](CCC(=O)O)NC(=O)[C@H](C)NC(=O)[C@H](CC(C)C)NC(=O)[C@H](CCCNC(=N)N)NC(=O)[C@H](CCC(N)=O)NC(=O)[C@@H](NC(=O)[C@H](C)NC(=O)[C@@H]1CSSC[C@H](NC(=O)[C@H](CCCCN)NC(=O)CC[C@H](NC(=O)CCCCCCCCCCCCCCCCCCC(=O)O)C(=O)O)C(=O)N[C@@H](CC(N)=O)C(=O)N[C@@H]([C@@H](C)O)C(=O)N[C@@H](C)C(=O)N[C@@H]([C@@H](C)O)C(=O)N1)[C@@H](C)O)C(=O)N1CCC[C@H]1C(=O)N[C@@H](CO)C(=O)N[C@@H](CO)C(=O)N[C@H](C(=O)N1CCC[C@H]1C(=O)N[C@H](C(=O)NCC(=O)N[C@@H](CO)C(=O)N[C@@H](CC(N)=O)C(=O)N[C@H](C(=O)N[C@@H](Cc1ccc(O)cc1)C(N)=O)[C@@H](C)O)C(C)C)[C@@H](C)O, also called compound 31)	3.26
